The values below are quoted from earlier work in publication PMC8353491.

The data set concerns the target Ubc9 (Homo sapiens) (UniProt P63279).
Sequence of UniProt P63279 (P63279 2-158): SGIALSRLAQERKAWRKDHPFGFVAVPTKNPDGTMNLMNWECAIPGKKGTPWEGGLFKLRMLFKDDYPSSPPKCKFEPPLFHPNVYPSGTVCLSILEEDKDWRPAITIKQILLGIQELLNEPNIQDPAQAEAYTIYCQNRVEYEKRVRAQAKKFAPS

As for SUMO1 (from UniProt P63165), the Kd (in general, the constant that tells how readily two partners part at equilibrium) is 0.082 µM.
